The target in assay [1] is Chikungunya virus-like particles of the 37997 strain (Chikungunya virus, strain 37997, strain). Put plainly: cryo-EM structure.
In assay [2] the target is recombinant p62-E1 protein derived from the CHIKV-LR 2006 strain (Chikungunya virus, LR 2006 …, UniProt Q1H8W5, strain). Put plainly: ELISA.

B1: 506.A08 Fab (Fab, V domains shown)
VH: EEQLVESGGGLVQPGGSLRLSCAASGFTFSSYSMNWVRQAPGKGLEWVSYISSSSSTIHYADSVKGRFTISRDNAKNSLYLQMNSLRAEDTAVYYCAREGNSGYEPLDYWGQGTLVTVS
VL: not shown
Consider B1, for which, in assay [1], the binding result is recorded as “binds”.

B2: 506.A08 (antibody, V domains shown)
VH: B1 VH
VL: not shown
With B2, the binding result in assay [2] was “binds”.

B3: 506.C01 Fab (Fab, V domains shown)
VH: QVQLQESGPGLVKPSQTLSLTCTVSGGSISSDDYYWTWIRLPPGKGLEWIGYIFYTGGTYYNPSLKSRVTISLDRSKNQFSLKLSSVTAADTAVYFCARAPETYCSTTNCYKGYFDSWGQGTLVTVSS
VL: DIQMTQSPSSVSASVGDRVTITCRASQGISSWLGWYQQKPGKAPKLLIYAASSLQSGVPSRFSGSGSGTDFTLTISSLQPEDFATYYCQQANSFPRTFGQGTKVEIK
For B3, in assay [1], the binding result is reported as “binds”.

B4: 506.C01 (antibody, V domains shown)
VH: B3 VH
VL: B3 VL
Regarding B4, the binding result in assay [2] is recorded as “binds”.

Source of the values: PMC10562830 (Science translational medicine, 2023).
